Measurements published in US20200199241A1 (Chugai, published 2020).
Positions count from the first letter of the chain named. Names and notes keep the numbering of the source.

T1: human FcγRIIa(R) (human, UniProt P12318 36-217)
T1 construct: also called FcgRIIaR; FcγRIIa type R
T1 chain: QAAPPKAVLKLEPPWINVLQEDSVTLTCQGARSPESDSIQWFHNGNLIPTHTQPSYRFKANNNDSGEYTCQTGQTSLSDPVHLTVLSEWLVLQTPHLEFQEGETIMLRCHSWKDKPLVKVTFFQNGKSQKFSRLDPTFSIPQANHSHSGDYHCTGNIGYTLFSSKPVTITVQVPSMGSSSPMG

T2: human FcγRIIa(H) (human, UniProt P12318 36-217)
T2 construct: also called FcgRIIaH; FcγRIIa type H
T2 sequence: T1 chain with R133H

T3: human FcγRIIb (human, UniProt P31994 43-217, limits assumed)
T3 construct: also called FcgRIIb
T3 sequence: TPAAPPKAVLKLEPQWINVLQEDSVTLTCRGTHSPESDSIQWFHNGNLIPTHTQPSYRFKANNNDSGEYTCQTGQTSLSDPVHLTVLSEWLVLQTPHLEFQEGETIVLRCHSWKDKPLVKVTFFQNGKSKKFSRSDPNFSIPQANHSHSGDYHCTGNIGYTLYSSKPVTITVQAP

B1: GpH7-B3 variant L234T/GpL16-k0 (antibody, human IgG1)
heavy: not shown
light: DIVMTQSPLSLPVTPGEPASISCQASESLVHSNRNTYLHWYLQKPGQSPQLLIYKVSNRFSGVPDRFSGSGSGTDFTLKISRVEAEDVGVYYCSQNTHVPPTFGQGTKVEIE
notes: copies: 2 + 2
B2: GpH7-B3 variant L235N/GpL16-k0 (antibody, human IgG1)
heavy: not shown
light: B1 light
notes: copies: 2 + 2
B3: GpH7-B3 variant L235A/GpL16-k0 (antibody, human IgG1)
heavy: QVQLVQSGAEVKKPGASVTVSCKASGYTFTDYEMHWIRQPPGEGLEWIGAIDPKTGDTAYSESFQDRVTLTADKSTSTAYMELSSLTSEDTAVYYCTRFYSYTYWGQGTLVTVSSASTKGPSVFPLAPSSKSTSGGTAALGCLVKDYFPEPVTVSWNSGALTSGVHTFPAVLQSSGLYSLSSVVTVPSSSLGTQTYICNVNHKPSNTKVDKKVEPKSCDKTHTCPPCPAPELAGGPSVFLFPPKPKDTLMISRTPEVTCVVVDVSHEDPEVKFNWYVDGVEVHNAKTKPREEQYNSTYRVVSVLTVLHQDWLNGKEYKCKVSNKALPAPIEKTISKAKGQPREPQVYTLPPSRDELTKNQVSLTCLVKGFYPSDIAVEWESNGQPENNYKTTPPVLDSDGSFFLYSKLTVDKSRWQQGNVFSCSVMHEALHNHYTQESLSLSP
light: B1 light
notes: copies: 2 + 2
B4: GpH7-B3 variant L234W/GpL16-k0 (antibody, human IgG1)
heavy: not shown
light: B1 light
notes: copies: 2 + 2
B5: GpH7-B3 variant L235I/GpL16-k0 (antibody, human IgG1)
heavy: not shown
light: B1 light
notes: copies: 2 + 2
B6: GpH7-B3 variant P238A/GpL16-k0 (antibody, human IgG1)
heavy: not shown
light: B1 light
notes: copies: 2 + 2
B7: GpH7-B3 variant P238K/GpL16-k0 (antibody, human IgG1)
heavy: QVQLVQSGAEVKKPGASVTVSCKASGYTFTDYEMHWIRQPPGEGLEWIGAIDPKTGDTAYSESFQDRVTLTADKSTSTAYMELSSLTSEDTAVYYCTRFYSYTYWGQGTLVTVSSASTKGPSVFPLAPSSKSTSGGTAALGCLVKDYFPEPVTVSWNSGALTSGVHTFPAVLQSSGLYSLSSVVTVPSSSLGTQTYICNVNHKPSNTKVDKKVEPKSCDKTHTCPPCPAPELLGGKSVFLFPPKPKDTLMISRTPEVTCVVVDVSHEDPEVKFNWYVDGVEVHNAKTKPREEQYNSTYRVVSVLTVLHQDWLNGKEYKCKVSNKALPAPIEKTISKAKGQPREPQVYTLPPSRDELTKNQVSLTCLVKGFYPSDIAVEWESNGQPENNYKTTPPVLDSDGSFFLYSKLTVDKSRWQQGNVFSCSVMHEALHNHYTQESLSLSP
light: B1 light
notes: copies: 2 + 2
B8: GpH7-B3 variant L235E/GpL16-k0 (antibody, human IgG1)
heavy: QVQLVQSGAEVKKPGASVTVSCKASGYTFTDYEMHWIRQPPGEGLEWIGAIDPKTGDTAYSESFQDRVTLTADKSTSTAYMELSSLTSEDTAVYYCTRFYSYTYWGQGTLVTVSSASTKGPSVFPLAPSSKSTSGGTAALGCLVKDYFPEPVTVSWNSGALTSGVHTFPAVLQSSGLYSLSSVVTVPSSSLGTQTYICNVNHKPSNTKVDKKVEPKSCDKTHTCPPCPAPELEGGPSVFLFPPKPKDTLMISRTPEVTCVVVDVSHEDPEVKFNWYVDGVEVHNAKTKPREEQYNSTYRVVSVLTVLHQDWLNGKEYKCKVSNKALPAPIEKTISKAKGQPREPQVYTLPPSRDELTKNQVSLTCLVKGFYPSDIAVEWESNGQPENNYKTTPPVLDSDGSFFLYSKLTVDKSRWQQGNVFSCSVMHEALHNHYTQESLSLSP
light: B1 light
notes: copies: 2 + 2
B9: GpH7-B3 variant L235T/GpL16-k0 (antibody, human IgG1)
heavy: not shown
light: B1 light
notes: copies: 2 + 2
B10: GpH7-B3 variant L235G/GpL16-k0 (antibody, human IgG1)
heavy: not shown
light: B1 light
notes: copies: 2 + 2
B11: GpH7-B3 variant L235K/GpL16-k0 (antibody, human IgG1)
heavy: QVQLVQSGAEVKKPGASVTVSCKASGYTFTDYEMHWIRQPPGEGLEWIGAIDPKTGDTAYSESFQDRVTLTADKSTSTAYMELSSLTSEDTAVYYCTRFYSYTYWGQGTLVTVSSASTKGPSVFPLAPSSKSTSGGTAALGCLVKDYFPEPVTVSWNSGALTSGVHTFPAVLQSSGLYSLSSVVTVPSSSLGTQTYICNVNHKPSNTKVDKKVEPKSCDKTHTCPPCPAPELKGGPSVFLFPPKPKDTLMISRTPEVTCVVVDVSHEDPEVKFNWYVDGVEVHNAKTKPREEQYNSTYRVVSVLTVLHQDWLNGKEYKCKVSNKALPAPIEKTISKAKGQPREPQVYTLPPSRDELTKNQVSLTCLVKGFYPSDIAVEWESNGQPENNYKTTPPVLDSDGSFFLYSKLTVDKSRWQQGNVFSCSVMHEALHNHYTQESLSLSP
light: B1 light
notes: copies: 2 + 2
B12: GpH7-B3 variant L235P/GpL16-k0 (antibody, human IgG1)
heavy: not shown
light: B1 light
notes: copies: 2 + 2
B13: GpH7-B3 variant L235S/GpL16-k0 (antibody, human IgG1)
heavy: not shown
light: B1 light
notes: copies: 2 + 2
B14: GpH7-B3 variant L235V/GpL16-k0 (antibody, human IgG1)
heavy: not shown
light: B1 light
notes: copies: 2 + 2
B15: GpH7-B3 variant L235H/GpL16-k0 (antibody, human IgG1)
heavy: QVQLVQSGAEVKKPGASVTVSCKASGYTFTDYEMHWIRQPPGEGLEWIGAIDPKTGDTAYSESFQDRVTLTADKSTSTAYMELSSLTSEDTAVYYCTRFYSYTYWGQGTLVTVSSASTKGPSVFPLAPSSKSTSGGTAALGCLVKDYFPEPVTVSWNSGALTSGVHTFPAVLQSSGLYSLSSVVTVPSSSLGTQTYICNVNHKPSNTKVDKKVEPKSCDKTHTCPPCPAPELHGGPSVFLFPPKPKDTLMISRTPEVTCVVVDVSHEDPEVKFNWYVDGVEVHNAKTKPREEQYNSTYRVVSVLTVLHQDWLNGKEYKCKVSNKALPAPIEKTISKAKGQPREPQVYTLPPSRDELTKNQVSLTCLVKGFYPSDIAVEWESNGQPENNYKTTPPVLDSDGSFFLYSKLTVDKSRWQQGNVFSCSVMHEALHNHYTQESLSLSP
light: B1 light
notes: copies: 2 + 2
B16: GpH7-B3 variant L235R/GpL16-k0 (antibody, human IgG1)
heavy: not shown
light: B1 light
notes: copies: 2 + 2
B17: GpH7-B3 variant L235D/GpL16-k0 (antibody, human IgG1)
heavy: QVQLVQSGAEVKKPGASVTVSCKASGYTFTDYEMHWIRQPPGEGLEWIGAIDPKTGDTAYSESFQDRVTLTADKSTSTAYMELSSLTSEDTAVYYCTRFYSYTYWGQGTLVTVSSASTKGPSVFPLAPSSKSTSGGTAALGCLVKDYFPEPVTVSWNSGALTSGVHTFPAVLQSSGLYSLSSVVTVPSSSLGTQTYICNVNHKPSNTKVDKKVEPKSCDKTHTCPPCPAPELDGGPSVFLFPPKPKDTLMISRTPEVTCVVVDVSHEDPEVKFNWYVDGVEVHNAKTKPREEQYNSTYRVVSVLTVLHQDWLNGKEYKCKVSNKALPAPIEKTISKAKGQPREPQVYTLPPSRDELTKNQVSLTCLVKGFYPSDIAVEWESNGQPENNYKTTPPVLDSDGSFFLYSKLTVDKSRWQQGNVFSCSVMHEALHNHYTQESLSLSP
light: B1 light
notes: copies: 2 + 2
B18: GpH7-B3 variant P238H/GpL16-k0 (antibody, human IgG1)
heavy: not shown
light: B1 light
notes: copies: 2 + 2
B19: GpH7-B3 variant P238I/GpL16-k0 (antibody, human IgG1)
heavy: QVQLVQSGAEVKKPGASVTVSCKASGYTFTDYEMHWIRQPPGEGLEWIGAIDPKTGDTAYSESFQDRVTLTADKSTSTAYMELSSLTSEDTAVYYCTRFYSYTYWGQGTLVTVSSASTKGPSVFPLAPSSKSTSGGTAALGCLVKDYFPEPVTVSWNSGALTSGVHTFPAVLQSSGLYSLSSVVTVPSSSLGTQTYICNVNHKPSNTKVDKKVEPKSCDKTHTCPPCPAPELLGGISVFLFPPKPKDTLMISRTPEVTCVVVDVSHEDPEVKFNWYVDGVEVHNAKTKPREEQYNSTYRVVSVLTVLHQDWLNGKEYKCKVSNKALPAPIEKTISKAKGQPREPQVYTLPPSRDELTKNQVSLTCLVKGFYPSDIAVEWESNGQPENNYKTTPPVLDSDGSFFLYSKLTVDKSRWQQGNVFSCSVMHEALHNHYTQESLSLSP
light: B1 light
notes: copies: 2 + 2
B20: GpH7-B3 variant L235M/GpL16-k0 (antibody, human IgG1)
heavy: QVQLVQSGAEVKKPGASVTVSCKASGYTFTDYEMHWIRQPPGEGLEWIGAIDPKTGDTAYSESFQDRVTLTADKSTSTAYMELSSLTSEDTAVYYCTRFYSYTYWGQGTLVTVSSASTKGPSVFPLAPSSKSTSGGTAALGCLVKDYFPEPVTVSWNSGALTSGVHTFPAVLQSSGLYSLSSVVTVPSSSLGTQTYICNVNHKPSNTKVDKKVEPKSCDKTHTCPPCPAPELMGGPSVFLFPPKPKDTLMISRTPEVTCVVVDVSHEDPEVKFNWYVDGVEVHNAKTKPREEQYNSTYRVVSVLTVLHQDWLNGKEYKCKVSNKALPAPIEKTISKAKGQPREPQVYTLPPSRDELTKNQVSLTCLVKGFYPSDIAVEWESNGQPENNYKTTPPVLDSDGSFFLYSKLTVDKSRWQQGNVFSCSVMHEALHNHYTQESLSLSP
light: B1 light
notes: copies: 2 + 2
B21: GpH7-B3 variant P238G/GpL16-k0 (antibody, human IgG1)
heavy: not shown
light: B1 light
notes: copies: 2 + 2
B22: GpH7-B3 variant L235Q/GpL16-k0 (antibody, human IgG1)
heavy: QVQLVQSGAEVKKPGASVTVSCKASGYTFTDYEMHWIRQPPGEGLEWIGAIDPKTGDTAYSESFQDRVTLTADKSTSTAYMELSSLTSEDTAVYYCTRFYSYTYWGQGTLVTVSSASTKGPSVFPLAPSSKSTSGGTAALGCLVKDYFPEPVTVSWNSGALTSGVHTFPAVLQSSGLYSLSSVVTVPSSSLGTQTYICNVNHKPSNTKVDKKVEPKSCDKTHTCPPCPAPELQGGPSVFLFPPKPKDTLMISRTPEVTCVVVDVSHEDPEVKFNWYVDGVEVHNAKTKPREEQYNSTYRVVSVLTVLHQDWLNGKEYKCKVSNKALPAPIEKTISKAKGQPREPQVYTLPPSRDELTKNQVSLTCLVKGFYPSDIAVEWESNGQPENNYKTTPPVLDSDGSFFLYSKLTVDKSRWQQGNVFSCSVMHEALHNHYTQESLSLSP
light: B1 light
notes: copies: 2 + 2
B23: GpH7-B3 variant P238Q/GpL16-k0 (antibody, human IgG1)
heavy: not shown
light: B1 light
notes: copies: 2 + 2
B24: GpH7-B3 variant P238N/GpL16-k0 (antibody, human IgG1)
heavy: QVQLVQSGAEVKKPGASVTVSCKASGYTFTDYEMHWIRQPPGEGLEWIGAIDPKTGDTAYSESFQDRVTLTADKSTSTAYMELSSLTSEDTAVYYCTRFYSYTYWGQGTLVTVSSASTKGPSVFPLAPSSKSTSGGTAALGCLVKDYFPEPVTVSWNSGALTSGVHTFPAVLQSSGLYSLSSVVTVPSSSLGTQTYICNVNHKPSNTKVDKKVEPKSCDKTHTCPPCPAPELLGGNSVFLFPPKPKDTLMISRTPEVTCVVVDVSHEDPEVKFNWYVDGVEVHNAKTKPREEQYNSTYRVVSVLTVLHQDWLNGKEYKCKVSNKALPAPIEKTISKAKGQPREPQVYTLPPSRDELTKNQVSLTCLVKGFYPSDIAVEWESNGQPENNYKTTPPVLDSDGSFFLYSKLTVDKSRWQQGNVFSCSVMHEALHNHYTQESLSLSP
light: B1 light
notes: copies: 2 + 2

Molecular target: T4, human FcγRIa (human, UniProt P12314 16-292, limits assumed)
T4 construct: also called FcgRIa; FcγRI (CD64)
T4 sequence (P12314 16-292 limits assumed): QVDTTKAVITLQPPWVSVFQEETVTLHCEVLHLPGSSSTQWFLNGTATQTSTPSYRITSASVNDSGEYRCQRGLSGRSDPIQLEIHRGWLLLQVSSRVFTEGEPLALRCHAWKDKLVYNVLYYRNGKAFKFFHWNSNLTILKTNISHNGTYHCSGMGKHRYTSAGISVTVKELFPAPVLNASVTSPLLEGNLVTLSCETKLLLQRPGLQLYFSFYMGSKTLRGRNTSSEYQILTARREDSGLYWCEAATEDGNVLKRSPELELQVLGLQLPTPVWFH
Test: SPR (Biacore);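 note: antibody variants captured on sensor chip, Fcγ receptor flowed over at 25 °C, bound receptor normalized to amount of captured antibody, expressed relative to reference antibody set as 100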

relative binding activity	Binder
93 % of GpH7-B3/GpL16-k0	B1
3 % of GpH7-B3/GpL16-k0	B2
66 % of GpH7-B3/GpL16-k0	B3
94 % of GpH7-B3/GpL16-k0	B4
93 % of GpH7-B3/GpL16-k0	B5
95 % of GpH7-B3/GpL16-k0	B6
8 % of GpH7-B3/GpL16-k0	B7
15 % of GpH7-B3/GpL16-k0	B8
8 % of GpH7-B3/GpL16-k0	B9
16 % of GpH7-B3/GpL16-k0	B10
-1 % of GpH7-B3/GpL16-k0	B11
3 % of GpH7-B3/GpL16-k0	B12
11 % of GpH7-B3/GpL16-k0	B13
69 % of GpH7-B3/GpL16-k0	B14
2 % of GpH7-B3/GpL16-k0	B15
0 % of GpH7-B3/GpL16-k0	B16
1 % of GpH7-B3/GpL16-k0	B17
80 % of GpH7-B3/GpL16-k0	B18
99 % of GpH7-B3/GpL16-k0	B19
93 % of GpH7-B3/GpL16-k0	B20
65 % of GpH7-B3/GpL16-k0	B21
29 % of GpH7-B3/GpL16-k0	B22
84 % of GpH7-B3/GpL16-k0	B23
64 % of GpH7-B3/GpL16-k0	B24

Molecular target: T1, human FcγRIIa(R)
Test: SPR (Biacore);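 note: antibody variants captured on sensor chip, Fcγ receptor flowed over at 25 °C, bound receptor normalized to amount of captured antibody, expressed relative to reference antibody set as 100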

relative binding activity	Binder
33 % of GpH7-B3/GpL16-k0	B1
35 % of GpH7-B3/GpL16-k0	B2
50 % of GpH7-B3/GpL16-k0	B3
64 % of GpH7-B3/GpL16-k0	B4
81 % of GpH7-B3/GpL16-k0	B5
38 % of GpH7-B3/GpL16-k0	B6
-2 % of GpH7-B3/GpL16-k0	B7
72 % of GpH7-B3/GpL16-k0	B8
28 % of GpH7-B3/GpL16-k0	B9
6 % of GpH7-B3/GpL16-k0	B10
-5 % of GpH7-B3/GpL16-k0	B11
38 % of GpH7-B3/GpL16-k0	B12
29 % of GpH7-B3/GpL16-k0	B13
50 % of GpH7-B3/GpL16-k0	B14
91 % of GpH7-B3/GpL16-k0	B15
-4 % of GpH7-B3/GpL16-k0	B16
87 % of GpH7-B3/GpL16-k0	B17
25 % of GpH7-B3/GpL16-k0	B18
43 % of GpH7-B3/GpL16-k0	B19
72 % of GpH7-B3/GpL16-k0	B20
4 % of GpH7-B3/GpL16-k0	B21
28 % of GpH7-B3/GpL16-k0	B22
19 % of GpH7-B3/GpL16-k0	B23
5 % of GpH7-B3/GpL16-k0	B24

Molecular target: T2, human FcγRIIa(H)
Test: SPR (Biacore);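 note: antibody variants captured on sensor chip, Fcγ receptor flowed over at 25 °C, bound receptor normalized to amount of captured antibody, expressed relative to reference antibody set as 100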

relative binding activity	Binder
30 % of GpH7-B3/GpL16-k0	B1
37 % of GpH7-B3/GpL16-k0	B2
48 % of GpH7-B3/GpL16-k0	B3
63 % of GpH7-B3/GpL16-k0	B4
89 % of GpH7-B3/GpL16-k0	B5
15 % of GpH7-B3/GpL16-k0	B6
-1 % of GpH7-B3/GpL16-k0	B7
52 % of GpH7-B3/GpL16-k0	B8
47 % of GpH7-B3/GpL16-k0	B9
7 % of GpH7-B3/GpL16-k0	B10
0 % of GpH7-B3/GpL16-k0	B11
33 % of GpH7-B3/GpL16-k0	B12
39 % of GpH7-B3/GpL16-k0	B13
68 % of GpH7-B3/GpL16-k0	B14
88 % of GpH7-B3/GpL16-k0	B15
1 % of GpH7-B3/GpL16-k0	B16
60 % of GpH7-B3/GpL16-k0	B17
3 % of GpH7-B3/GpL16-k0	B18
19 % of GpH7-B3/GpL16-k0	B19
72 % of GpH7-B3/GpL16-k0	B20
1 % of GpH7-B3/GpL16-k0	B21
34 % of GpH7-B3/GpL16-k0	B22
4 % of GpH7-B3/GpL16-k0	B23
1 % of GpH7-B3/GpL16-k0	B24

Molecular target: T3, human FcγRIIb
Test: SPR (Biacore);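 note: antibody variants captured on sensor chip, Fcγ receptor flowed over at 25 °C, bound receptor normalized to amount of captured antibody, expressed relative to reference antibody set as 100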

relative binding activity	Binder
27 % of GpH7-B3/GpL16-k0	B1
27 % of GpH7-B3/GpL16-k0	B2
37 % of GpH7-B3/GpL16-k0	B3
90 % of GpH7-B3/GpL16-k0	B4
88 % of GpH7-B3/GpL16-k0	B5
26 % of GpH7-B3/GpL16-k0	B6
-2 % of GpH7-B3/GpL16-k0	B7
64 % of GpH7-B3/GpL16-k0	B8
26 % of GpH7-B3/GpL16-k0	B9
3 % of GpH7-B3/GpL16-k0	B10
-3 % of GpH7-B3/GpL16-k0	B11
32 % of GpH7-B3/GpL16-k0	B12
23 % of GpH7-B3/GpL16-k0	B13
47 % of GpH7-B3/GpL16-k0	B14
66 % of GpH7-B3/GpL16-k0	B15
-2 % of GpH7-B3/GpL16-k0	B16
88 % of GpH7-B3/GpL16-k0	B17
19 % of GpH7-B3/GpL16-k0	B18
31 % of GpH7-B3/GpL16-k0	B19
63 % of GpH7-B3/GpL16-k0	B20
27 % of GpH7-B3/GpL16-k0	B21
20 % of GpH7-B3/GpL16-k0	B22
43 % of GpH7-B3/GpL16-k0	B23
27 % of GpH7-B3/GpL16-k0	B24

Molecular target: T5, human FcγRIIIa(F) (human, UniProt P08637 17-208, limits assumed)
T5 construct: also called FcgRIIIaF; allotype F158
T5 sequence (P08637 other isoform, or with tags, fused parts or gaps limits assumed): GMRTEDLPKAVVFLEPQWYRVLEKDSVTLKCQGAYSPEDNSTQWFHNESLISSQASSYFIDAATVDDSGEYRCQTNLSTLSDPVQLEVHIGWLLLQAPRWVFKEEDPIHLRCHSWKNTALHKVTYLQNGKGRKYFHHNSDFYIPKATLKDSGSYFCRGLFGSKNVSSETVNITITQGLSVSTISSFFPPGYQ
Test: SPR (Biacore)

relative binding activity	Binder
30 % of GpH7-B3/GpL16-k0	B1
35 % of GpH7-B3/GpL16-k0	B2
49 % of GpH7-B3/GpL16-k0	B3
36 % of GpH7-B3/GpL16-k0	B4
85 % of GpH7-B3/GpL16-k0	B5
5 % of GpH7-B3/GpL16-k0	B6
-1 % of GpH7-B3/GpL16-k0	B7
56 % of GpH7-B3/GpL16-k0	B8
48 % of GpH7-B3/GpL16-k0	B9
13 % of GpH7-B3/GpL16-k0	B10
6 % of GpH7-B3/GpL16-k0	B11
47 % of GpH7-B3/GpL16-k0	B12
36 % of GpH7-B3/GpL16-k0	B13
77 % of GpH7-B3/GpL16-k0	B14
28 % of GpH7-B3/GpL16-k0	B15
9 % of GpH7-B3/GpL16-k0	B16
60 % of GpH7-B3/GpL16-k0	B17
-1 % of GpH7-B3/GpL16-k0	B18
3 % of GpH7-B3/GpL16-k0	B19
42 % of GpH7-B3/GpL16-k0	B20
0 % of GpH7-B3/GpL16-k0	B21
35 % of GpH7-B3/GpL16-k0	B22
-1 % of GpH7-B3/GpL16-k0	B23
-1 % of GpH7-B3/GpL16-k0	B24
